The source of these data is patent US20220409701A1, “PROCESS FOR PRODUCING A TABLET COMPRISING GLP-1 PEPTIDES” (Novo Nordisk A/S, priority 2019, published 2022).

The data set in a line: Isoelectric point (pI) of the GLP-1 peptide. The class given is physicochemical. Particulars: pH value where the peptide carries no net charge. From the text: Exemplary non-volatile bases are sodium hydroxide, potassium hydroxide, buffers selected from e.g. a phosphate buffer, a TRIS buffer, an acetate buffer. The ‘pI’ as used herein refers to the isoelectric point of the GLP-1 peptide, i.e. the pH value where the peptide carried no net charge.

As to “N^6,26-{18-[N-(17-carboxyheptadecanoyl)-L-γ-glutamyl]-10-oxo-3,6,12,15-tetraoxa-9,18-diazaoctadecanoyl}-[8-(2-amino-2-propanoic acid), 34-L-arginine]human glucagon-like peptide 1(7-37) [semaglutide]”, the pI entry was “about 5.4”.

With “Nε27-[2-[2-[2-[[2-[2-[2-[[(4S)-4-carboxy-4-[10-(4-carboxyphenoxy)decanoylamino]butanoyl]amino]ethoxy]ethoxy]acetyl]amino]ethoxy]ethoxy]acetyl], Nε36-[2-[2-[2-[[2-[2-[2-[[(4S)-4-carboxy-4-[10-(4-carboxyphenoxy)decanoylamino]butanoyl]amino]ethoxy]ethoxy]acetyl]amino]ethoxy]ethoxy]a cetyl]-[Aib8,Glu22,Arg26,Lys27,Glu30,Arg34,Lys36]-GLP-1-(7-37)-peptidyl-Glu-Gly [Compound A]”, the pI result is reported as “about 4.6”.
